Test results from paper doi:10.1101/2022.07.11.499577 (bioRxiv, 2022).

B1: Eaf1 (natural protein)
chain: MSSRPSSAVPNSASLSEDQSSDRSKFPKADDLIDERDRKLTELYCVSRLNQLLELTDENKLRKEIDAFLKKNDIRRGIRFDEASLPKLLHTAATPITKKKLKDVNLINVPNQRLSDSKMSRELPENSENVSVKSESHFVPSHDNSIRENMMDSLRPAEKTGGMWNKRPLESTMGGEEERHEKRQKMQSQSLESSNNSEMASLPISPRPPVPNALAHYTYYENIEYPPADPTEVQPAVKFKDPLIKNIMAKEIDTSDHYNENNVDALETVFLLMNDYIPSKIPQALPLAELKYMSQTLPLINLIPRAHKALTTNIINNALNEARITVVGSRIEELRRLGLWSLRQPKRFIDPWKQHNTHQNILLEEAKWMQADFKEGHKYKVAICTAMAQAIKDYWTYGEICCVKRKTLLPGKENKLSDDGRISEKSGRPSDTSRNDSDISIAGKDDIGIIANVDDITEKESAAANDNDENGKNEAGAKSDFDFADGLLSQEGAHDQIISSIDTKLLLKKPSSSSEVVLIQHEVAASSALIETEESKKELAPPFKLSIFVDELNTFEKTLIQDLPLYNGINEERPKKDDSLPFIPISKSVVSLDDNGFYKLLERQLIDEEPSISQLSKRRGMFYGNRRNHYLRPPAVPSLRYLQNRTPTIWLSEDDQELVKNINTYGYNWELISAHMTHRLTYSYLSNIERRTPWQCFERFVQLNERFNFSDLKGPRAHSAQQWLIEAHKFQQRQNRRISPLGVNTESIQRGHRRLRWASMFEAIRKCMKKRENTPRPNPTQPRKPLDCKNMKVPTPAEMSLLKAQRDEALRRDIQLRRTVKNRLQQRQQQSQQAHSSRAQSPIPSNGKSSSNLARNGQASAPRPNQKQYTEQDIIESYSRKLLEQKPDIGPEMALKAAKNYYRTLREQQQQLKQHQIQQQRQQLQEESSHVQQLQQLQPGSQAPPPKSSPSQSSLSNISNINSAPRIKSPTPQEILQRFQKQ

How the values were obtained:
Eaf1 [1] = target: B1; assay: affinity purification with mass spectrometry
Tra1 = Tra1 (S. cerevisiae, UniProt P38811 1-3744); assay: cryo-EM structure
Tra1, sequence (P38811 whole entry): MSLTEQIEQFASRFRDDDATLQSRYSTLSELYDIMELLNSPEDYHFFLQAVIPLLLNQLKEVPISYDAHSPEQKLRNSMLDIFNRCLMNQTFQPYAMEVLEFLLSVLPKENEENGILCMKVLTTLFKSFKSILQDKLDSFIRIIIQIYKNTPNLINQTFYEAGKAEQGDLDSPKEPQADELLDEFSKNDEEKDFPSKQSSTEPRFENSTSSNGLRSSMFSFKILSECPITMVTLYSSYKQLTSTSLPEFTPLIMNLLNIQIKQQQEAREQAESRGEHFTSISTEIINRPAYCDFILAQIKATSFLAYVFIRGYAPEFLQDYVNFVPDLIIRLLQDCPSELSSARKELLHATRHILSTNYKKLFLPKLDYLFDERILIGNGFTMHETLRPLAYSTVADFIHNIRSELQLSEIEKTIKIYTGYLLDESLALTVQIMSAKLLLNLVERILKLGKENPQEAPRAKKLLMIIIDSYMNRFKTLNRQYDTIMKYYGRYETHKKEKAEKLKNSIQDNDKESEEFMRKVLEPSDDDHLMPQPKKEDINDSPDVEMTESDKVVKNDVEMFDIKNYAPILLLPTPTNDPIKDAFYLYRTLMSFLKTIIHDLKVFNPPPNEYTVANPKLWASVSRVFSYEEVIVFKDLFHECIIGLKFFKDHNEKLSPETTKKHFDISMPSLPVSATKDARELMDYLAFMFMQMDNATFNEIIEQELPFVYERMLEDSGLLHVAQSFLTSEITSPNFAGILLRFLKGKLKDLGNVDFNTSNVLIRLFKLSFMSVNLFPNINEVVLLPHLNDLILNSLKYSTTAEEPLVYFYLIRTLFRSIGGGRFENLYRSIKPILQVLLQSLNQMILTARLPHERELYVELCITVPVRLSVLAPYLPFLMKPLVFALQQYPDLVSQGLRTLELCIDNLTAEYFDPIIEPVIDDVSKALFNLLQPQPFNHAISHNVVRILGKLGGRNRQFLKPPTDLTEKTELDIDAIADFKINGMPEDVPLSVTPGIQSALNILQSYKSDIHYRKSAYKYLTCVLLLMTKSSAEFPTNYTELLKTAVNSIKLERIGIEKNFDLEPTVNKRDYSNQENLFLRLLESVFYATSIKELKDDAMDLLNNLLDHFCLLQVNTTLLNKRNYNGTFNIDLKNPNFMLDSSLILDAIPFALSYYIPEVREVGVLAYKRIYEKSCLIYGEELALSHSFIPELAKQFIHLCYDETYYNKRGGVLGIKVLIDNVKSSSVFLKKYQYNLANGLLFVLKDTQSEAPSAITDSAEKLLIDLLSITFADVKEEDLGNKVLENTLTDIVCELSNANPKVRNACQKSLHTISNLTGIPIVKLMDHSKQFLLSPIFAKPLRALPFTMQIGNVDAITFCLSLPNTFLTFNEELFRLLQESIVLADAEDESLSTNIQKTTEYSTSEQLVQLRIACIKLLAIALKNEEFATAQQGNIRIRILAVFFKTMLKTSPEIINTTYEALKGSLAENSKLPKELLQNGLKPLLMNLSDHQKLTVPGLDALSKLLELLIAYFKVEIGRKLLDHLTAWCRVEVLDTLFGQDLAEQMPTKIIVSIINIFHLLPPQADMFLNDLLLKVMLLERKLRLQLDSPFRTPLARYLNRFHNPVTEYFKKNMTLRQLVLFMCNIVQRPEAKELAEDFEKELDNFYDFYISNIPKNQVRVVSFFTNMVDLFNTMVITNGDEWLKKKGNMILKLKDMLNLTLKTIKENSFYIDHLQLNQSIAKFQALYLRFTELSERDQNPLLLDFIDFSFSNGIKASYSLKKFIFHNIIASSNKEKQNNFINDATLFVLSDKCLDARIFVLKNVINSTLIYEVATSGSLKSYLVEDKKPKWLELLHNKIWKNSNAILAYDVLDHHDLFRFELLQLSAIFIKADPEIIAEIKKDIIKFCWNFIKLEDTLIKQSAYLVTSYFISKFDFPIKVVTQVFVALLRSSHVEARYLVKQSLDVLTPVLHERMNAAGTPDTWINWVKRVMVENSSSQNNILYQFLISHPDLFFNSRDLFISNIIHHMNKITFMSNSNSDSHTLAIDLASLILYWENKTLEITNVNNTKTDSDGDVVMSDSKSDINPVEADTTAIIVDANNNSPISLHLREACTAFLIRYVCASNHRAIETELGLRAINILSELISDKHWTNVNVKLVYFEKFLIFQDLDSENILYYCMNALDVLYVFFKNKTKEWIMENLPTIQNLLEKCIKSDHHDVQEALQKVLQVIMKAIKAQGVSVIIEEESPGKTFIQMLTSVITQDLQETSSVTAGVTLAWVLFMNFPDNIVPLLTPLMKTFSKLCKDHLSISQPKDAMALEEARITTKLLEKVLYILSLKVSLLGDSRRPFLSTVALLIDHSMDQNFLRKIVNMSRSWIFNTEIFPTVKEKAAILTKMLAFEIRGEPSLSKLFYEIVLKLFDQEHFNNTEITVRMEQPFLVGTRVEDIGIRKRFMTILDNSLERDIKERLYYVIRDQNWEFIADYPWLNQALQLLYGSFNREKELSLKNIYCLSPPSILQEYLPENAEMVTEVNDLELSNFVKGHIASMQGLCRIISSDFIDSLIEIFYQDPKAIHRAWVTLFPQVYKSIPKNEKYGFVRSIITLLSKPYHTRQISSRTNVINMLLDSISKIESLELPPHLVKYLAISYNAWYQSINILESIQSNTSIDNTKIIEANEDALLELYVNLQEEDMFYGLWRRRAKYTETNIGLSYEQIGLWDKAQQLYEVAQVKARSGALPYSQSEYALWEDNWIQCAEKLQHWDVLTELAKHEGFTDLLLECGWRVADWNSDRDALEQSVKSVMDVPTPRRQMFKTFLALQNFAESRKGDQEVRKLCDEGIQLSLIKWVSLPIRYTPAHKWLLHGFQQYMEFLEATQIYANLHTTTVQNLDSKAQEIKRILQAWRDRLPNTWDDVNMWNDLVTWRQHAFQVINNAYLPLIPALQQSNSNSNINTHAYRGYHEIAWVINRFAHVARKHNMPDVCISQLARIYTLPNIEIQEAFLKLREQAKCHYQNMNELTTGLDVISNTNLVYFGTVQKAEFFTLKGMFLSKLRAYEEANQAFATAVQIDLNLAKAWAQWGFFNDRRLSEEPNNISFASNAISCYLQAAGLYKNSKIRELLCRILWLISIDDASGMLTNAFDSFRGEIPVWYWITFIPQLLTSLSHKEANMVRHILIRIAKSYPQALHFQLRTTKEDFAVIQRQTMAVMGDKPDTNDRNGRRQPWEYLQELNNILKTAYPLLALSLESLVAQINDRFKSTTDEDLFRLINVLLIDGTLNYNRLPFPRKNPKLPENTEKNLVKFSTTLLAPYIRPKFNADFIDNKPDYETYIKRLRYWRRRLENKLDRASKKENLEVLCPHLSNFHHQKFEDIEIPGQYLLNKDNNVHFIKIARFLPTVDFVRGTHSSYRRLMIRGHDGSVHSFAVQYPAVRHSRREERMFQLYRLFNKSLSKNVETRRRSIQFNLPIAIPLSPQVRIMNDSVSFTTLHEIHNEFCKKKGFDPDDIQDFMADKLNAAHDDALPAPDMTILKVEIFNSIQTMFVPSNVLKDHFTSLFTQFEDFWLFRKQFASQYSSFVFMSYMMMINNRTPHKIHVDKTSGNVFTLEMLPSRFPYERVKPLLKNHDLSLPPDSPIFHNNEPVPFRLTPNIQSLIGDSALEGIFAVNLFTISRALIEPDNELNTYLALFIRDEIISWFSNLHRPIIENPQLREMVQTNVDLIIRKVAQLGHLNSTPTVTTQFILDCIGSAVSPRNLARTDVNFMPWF

Eaf1 [2] = target: B1; assay: cryo-EM structure

binding result (Eaf1 [1])	binding result (Tra1)	binding result (Eaf1 [2])	Binder
binds			Epl1 with a TAP tag fused to the C-terminus (natural protein) MPTPSNAIEINDGSHKSGRSTRRSGSRSAHDDGLDSFSKGDSGAGASAGSSNSRFRHRKISVKQHLKIYLPNDLKHLDKDELQQREVVEIETGVEKNEEKEVHLHRILQMGSGHTKHKDYIPTPDASMTWNEYDKFYTGSFQETTSYIKFSATVEDCCGTNYNMDERDETFLNEQVNKGSSDILTEDEFEILCSSFEHAIHERQPFLSMDPESILSFEELKPTLIKSDMADFNLRNQLNHEINSHKTHFITQFDPVSQMNTRPLIQLIEKFGSKIYDYWRERKIEVNGYEIFPQLKFERPGEKEEIDPYVCFRRREVRHPRKTRRIDILNSQRLRALHQELKNAKDLALLVAKRENVSLNWINDELKIFDQRVKIKNLKRSLNISGEDDDLINHKRKRPTIVTVEQREAELRKAELKRAAAAAAAAKAKNNKRNNQLEDKSSRLTKQQQQQLLQQQQQQQQNALKTENGKQLANASSSSTSQPITSHVYVKLPSSKIPDIVLEDVDALLNSKEKNARKFVQEKMEKRKIEDADVFFNLTDDPFNPVFDMSLPKNFSTSNVPFASIASSKFQIDRSFYSSHLPEYLKGISDDIRIYDSNGRSRNKDNYNLDTKRIKKTELYDPFQENLEIHSREYPIKFRKRVGRSNIKYVDRMPNFTTSSTKSACSLMDFVDFDSIEKEQYSREGSNDTDSINVYDSKYDEFVRLYDKWKYDSPQNEYGIKFSDEPARLNQISNDTQVIRFGTMLGTKSYEQLREATIKYRRDYITRLKQKHIQHLQQQQQQQQQQQQQAQQQKQKSQNNNSNSSNSLKKLNDSLINSEAKQNSSITQKNSS
	binds		B1
	binds	binds	Eaf2/Swc4 (natural protein) MSSSDIFDVLNIKQKSRSPTNGQVSVPSSSAANRPKPQVTGMQRELFNLLGENQPPVVIKSGNNFKEKMLSTSKPSPWSFVEFKANNSVTLRHWVKGSKELIGDTPKESPYSKFNQHLSIPSFTKEEYEAFMNENEGTQKSVESEKNHNENFTNEKKDESKNSWSFEEIEYLFNLCKKYDLRWFLIFDRYSYNNSRTLEDLKEKFYYTCRNYFKASDPSNPLLSSLNFSAEKEIERKKYLQRLLSRSAAEIAEEEALVVESKKFEMAAKRTLAERESLLRLLDSPHSDQTITQYLTSQGMSQLYNALLADKTRKRKHDLNIPENPWMKQQQQFAQHRQLQQLNVKKSEVKENLSPKKTKRQRQEMQTALKRKSESAYAEQLLKDFNSDERKALGVITHGEKLSPGVYLRSTKLSTFKPALQNKILAILQELSLPSRPVMPSFDVMERQEELLKKINTLIDLKKHVDKYEAGMSITK
